Laboratory results as given in the supplement of paper PMC10567573.

B1: FBF1 (parent)
chain: YQRPQDSEDMWGDEDFTFGAYQPT

Variants of: B1
Experiment: protein stability index of a GFP-peptide fusion (GPS, HEK-293T) (PSI 1-6); higher = more stable
Details: c terminus: a fixed tail appended
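Note: lentivirally expressed fusions sorted by FACS into six bins by GFP to DsRed ratio, PSI derived from sequencing read proportions per bin multiplied by bin number.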

Protein stability index of substitutions, site by site:
R3: S 3.11 | Y 3.09 | P 3.87 | W 2.82 | T 2.62 | V 3.5 | N 3.71 | Q 4.01 | I 2.87 | K 3.64 | H 3.49 | C 3.12 | E 4.79 | A 3.44 | M 3.2 | F 3.12 | L 3.46 | G 3.4 | D 4.36
S7: M 2.37 | N 3.2 | L 2.87 | G 2.47 | C 2.34 | H 2.58 | F 2.41 | T 2.35 | R 2.71 | W 1.73 | V 2.82 | E 3.29 | Y 1.74 | D 3.68 | I 2.99 | P 3.13 | K 3.01 | A 2.68 | Q 2.9
Q2: T 3.54 | E 4.26 | Y 3.65 | A 2.79 | C 2.7 | W 2.38 | F 3.25 | R 3.83 | L 3.45 | H 2.21 | S 3.53 | I 2.08 | N 3.14 | D 4.81 | M 3.56 | G 3.76 | K 3.81 | V 1.78 | P 3.05
P4: W 2.09 | L 2.74 | R 2.26 | D 3.39 | H 2.97 | Q 2.54 | A 2.45 | V 2.49 | E 3.56 | N 2.26 | K 2.29 | G 2.69 | Y 3.04 | T 2.57 | I 2.68 | S 2.54 | C 2.7 | F 2.54 | M 2.74
D6: Y 2.06 | I 1.98 | L 2.17 | S 2.24 | G 1.77 | Q 2.26 | W 1.64 | K 1.94 | T 2.53 | H 1.84 | F 1.68 | V 2.12 | M 2.32 | P 2.3 | C 2.06 | A 2.05 | N 2.25 | E 2.59 | R 2.04
Y1: G 4.79 | L 3.87 | N 4.62 | F 2.58 | M 4.6 | S 4.52 | Q 4.23 | K 4.24 | V 3.92 | T 4.66 | D 4.87 | A 4.84 | C 3.54 | E 4.84 | W 3.93 | I 3.95 | R 3.94 | H 4.76 | P 4.71
E8: C 1.99 | D 2.47 | N 2 | I 1.95 | G 1.98 | T 2.29 | K 1.78 | L 2.1 | H 2.01 | P 1.65 | Q 1.81 | R 1.58 | F 2.13 | M 2.42 | W 1.58 | A 1.9 | V 1.7 | Y 2.31 | S 2.32
Q5: A 2.49 | G 2.99 | W 2.03 | L 2.09 | H 2.44 | R 2.16 | K 2.01 | T 3.18 | I 2.26 | C 2.26 | E 3.76 | V 2.56 | M 2.44 | N 3.03 | S 2.98 | P 2.52 | F 2.64 | D 3.79 | Y 2.57
D9: R 2.34 | F 1.92 | K 2.01 | M 1.55 | H 2.03 | Q 2.23 | I 2.13 | G 2.47 | E 3.21 | S 2.11 | P 2.02 | A 2.17 | C 1.55 | L 1.44 | N 2.48
